The values below come from US20200078439A1 (IMMATICS BIOTECHNOLOGIES, published 2020).

For the assay, the target named is T1, HLA-A*0211 (purified recombinant HLA-A*0211 heavy chain with beta-2 microglobulin) (human).
T1 construct: MHC class I molecule without peptide; folds with b2m in a peptide-dependent manner, and folded complex is measured by ELISA
Briefly: ELISA-based refolding assay: recombinant HLA-A*0211 heavy chain + b2m + graded doses of peptide. For orientation: An ELISA detects its analyte on a solid surface through an enzyme-linked reagent.
Take LDRERAKN [BIR-12 (C-terminal octamer of BIR-004: LDRERAKN)]: the binding result is given as “no binding”.

Turning to LKLDRERAKN [BIR-13 (C-terminal decamer of BIR-004: LKLDRERAKN)], the binding result was “binds”.

KLDRERAKN (also called nonamer BIR-11) [BIR-11 (C-terminal nonamer of BIR-004: KLDRERAKN)]: the binding result was “binds”.
